Here are results for two molecules from patent publication US20070218001A1 (BIOTECH STUDIO, published 2007).

Where “and” joins values, the source holds several entries; their conditions need not be identical. Equal entries are not always repeated. Where no end group is shown, it is not given here. The star is where a group is joined. Biotin = O=C1N[C@H]2[C@H](CS[C@H]2CCCCC(=O)*)N1

One experiment addresses biotin-… peptide. The experiment is described as follows: phage ELISA, biotinylated peptide on streptavidin-coated wells, anti-M13 HRP and ABTS, 35 min at room temperature.
The target of experiment [1] is T1, recombinant phage displaying CASK PDZ domain (PDZ domain of human hCASK, hCASK-PDZopt in pCANTAB5E) (human, UniProt O14936 480-577).
T1 construct: also called wildtype hCASK-PDZ
T1 sequence: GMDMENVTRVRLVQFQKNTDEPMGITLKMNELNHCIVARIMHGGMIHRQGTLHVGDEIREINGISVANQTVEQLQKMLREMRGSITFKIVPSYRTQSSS
The experiment in a line: phage ELISA.

In the case of “phage-displayed third PDZ domain of human Dlg1 (in pCANTAB5E)”, the OD405 in the experiment with biotin-… peptide is 0.51 OD405 and 0.46 OD405.

B1: biotin-QKAPTKEFYA peptide (peptide)
peptide: Biotin-QKAPTKEFYA
notes: also called cognate peptide ligand of hCASK PDZ; C-terminus of syndecan-2
For the molecule B1, the binding result in experiment [1] is on record as “binds”.
